Assay results reported in patent publication US20210205408A1.

Biological target: PRX302 (modified proaerolysin in which the furin site is replaced with a PSA-specific cleavage site) (Aeromonas hydrophilia (engineered variant)) (UniProt P09167)
Test: cell-based or functional assay

Prostate Specific Antigen (PSA), enzymatically active (from UniProt P07288 25-261) (enzyme)
hemolysis (red blood cells) after pre-incubation of PRX302 with enzymatically active PSA in aqueous buffer: 45 % hemolysis
